Biological target: T1, MbpAgo (Mucilaginibacter paludis, UniProt H1YCU5 1-795)
T1 sequence: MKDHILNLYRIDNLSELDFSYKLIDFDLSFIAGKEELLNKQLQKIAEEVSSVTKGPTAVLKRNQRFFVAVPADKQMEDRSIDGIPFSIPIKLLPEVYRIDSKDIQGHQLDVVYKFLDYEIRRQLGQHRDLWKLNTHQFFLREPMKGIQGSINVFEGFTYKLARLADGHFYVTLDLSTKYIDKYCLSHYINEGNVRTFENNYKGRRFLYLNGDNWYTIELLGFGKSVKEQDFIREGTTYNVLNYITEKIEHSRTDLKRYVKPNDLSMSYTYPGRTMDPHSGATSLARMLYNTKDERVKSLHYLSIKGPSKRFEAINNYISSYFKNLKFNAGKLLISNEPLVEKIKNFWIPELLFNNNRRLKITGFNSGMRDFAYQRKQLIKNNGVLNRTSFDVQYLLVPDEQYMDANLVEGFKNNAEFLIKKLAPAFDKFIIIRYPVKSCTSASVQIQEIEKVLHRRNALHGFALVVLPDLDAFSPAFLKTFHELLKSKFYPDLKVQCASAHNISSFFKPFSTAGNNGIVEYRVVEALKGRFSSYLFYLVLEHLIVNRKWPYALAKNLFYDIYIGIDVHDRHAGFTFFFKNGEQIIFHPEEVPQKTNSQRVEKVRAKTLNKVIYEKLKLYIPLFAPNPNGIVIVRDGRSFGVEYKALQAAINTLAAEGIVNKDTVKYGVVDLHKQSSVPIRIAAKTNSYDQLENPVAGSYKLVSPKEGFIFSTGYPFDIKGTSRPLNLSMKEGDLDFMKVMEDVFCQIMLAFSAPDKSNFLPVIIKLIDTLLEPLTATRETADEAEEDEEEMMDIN
Test: EMSA

Binder: TGAGGTAGTAGGTTGTAT (ssDNA) [18 nt 5'OH-gDNA (FAM T-gDNA)]
- Kd: 292 ± 25.2 nM

Binder: TGAGGTAGTAGGTTGTAT (ssDNA, 5' phosphate) [18 nt 5'P-gDNA (FAM T-gDNA)]
- Kd: 254 ± 23.3 nM
